Measurements from patent US20200299347A1 (Merck KGaA, published 2020).

Assays:
NGF = test: cell-based or functional assay
FGFR3 = test: cell-based or functional assay

NGF, sequence (P01138 122-241): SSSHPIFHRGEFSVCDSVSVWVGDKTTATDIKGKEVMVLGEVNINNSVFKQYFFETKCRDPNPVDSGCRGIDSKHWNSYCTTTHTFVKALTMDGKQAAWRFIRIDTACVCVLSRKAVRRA

Binder | anti-NGF IC50 (nM), U2OS TrkA_p75 assay; construct from expiCHO-S (NGF) | FGF18 EC50 (nM), BaF3/FGFR3 assay; construct from expiCHO-S (FGFR3)
FGF18 SEED (HO110) (other) EPKSSDKTHTCPPCPAPEAAGGPSVFLFPPKPKDTLMISRTPEVTCVVVDVSHEDPEVKFNWYVDGVEVHNAKTKPREEQYNSTYRVVSVLTVLHQDWLNGKEYKCKVSNKALGAPIEKTISKAKGQPREPQVYTLPPPSEELALNELVTLTCLVKGFYPSDIAVEWLQGSQELPREKYLTWAPVLDSDGSFFLYSILRVAAEDWKKGDTFSCSVMHEALHNRFTQKSLDRSPGKEPKSSDKTHTEENVDFRIHVENQTRARDDVSRKQLRLYQLYSRTSGKHIQVLGRRISARGEDGDKYAQLLVETDTFGSQVRIKGKETEFYLCMNRKGKLVGKPDGTSKECVFIEKVLENNYTALMSAKYSGWYVGFTKKGRPRKGPKTRENQQDVHFMKRYPKGQPELQKPFKYTTVTK heavy: QVQLQESGPGLVKPSETLSLTCTVSGFSLIGYDLNWIRQPPGKGLEWIGIIWGDGTTDYNSAVKSRVTISKDTSKNQFSLKLSSVTAADTAVYYCARGGYWYATSYYFDYWGQGTLVTVSSASTKGPSVFPLAPSSKSTSGGTAALGCLVKDYFPEPVTVSWNSGALTSGVHTFPAVLQSSGLYSLSSVVTVPSSSLGTQTYICNVNHKPSNTKVDKKVEPKSCDKTHTCPPCPAPEAAGGPSVFLFPPKPKDTLMISRTPEVTCVVVDVSHEDPEVKFNWYVDGVEVHNAKTKPREEQYNSTYRVVSVLTVLHQDWLNGKEYKCKVSNKALGAPIEKTISKAKGQPREPQVYTLPPPSEELALNELVTLTCLVKGFYPSDIAVEWLQGSQELPREKYLTWAPVLDSDGSFFLYSILRVAAEDWKKGDTFSCSVMHEALHNRFTQKSLDRSPGK light: not shown | 0.89 nM | 0.02 nM
FGF18 SEED (HO124) (other) EENVDFRIHVENQTRARDDVSRKQLRLYQLYSRTSGKHIQVLGRRISARGEDGDKYAQLLVETDTFGSQVRIKGKETEFYLCMNRKGKLVGKPDGTSKECVFIEKVLENNYTALMSAKYSGWYVGFTKKGRPRKGPKTRENQQDVHFMKRYPKGQPELQKPFKYTTVTKGGSGGSGSGSEPKSSDKTHTCPPCPAPEAAGGPSVFLFPPKPKDTLMISRTPEVTCVVVDVSHEDPEVKFNWYVDGVEVHNAKTKPREEQYNSTYRVVSVLTVLHQDWLNGKEYKCKVSNKALGAPIEKTISKAKGQPREPQVYTLPPPSEELALNELVTLTCLVKGFYPSDIAVEWLQGSQELPREKYLTWAPVLDSDGSFFLYSILRVAAEDWKKGDTFSCSVMHEALHNRFTQKSLDRSPGK heavy: QVQLQESGPGLVKPSETLSLTCTVSGFSLIGYDLNWIRQPPGKGLEWIGIIWGDGTTDYNSAVKSRVTISKDTSKNQFSLKLSSVTAADTAVYYCARGGYWYATSYYFDYWGQGTLVTVSSASTKGPSVFPLAPSSKSTSGGTAALGCLVKDYFPEPVTVSWNSGALTSGVHTFPAVLQSSGLYSLSSVVTVPSSSLGTQTYICNVNHKPSNTKVDKKVEPKSCDKTHTCPPCPAPEAAGGPSVFLFPPKPKDTLMISRTPEVTCVVVDVSHEDPEVKFNWYVDGVEVHNAKTKPREEQYNSTYRVVSVLTVLHQDWLNGKEYKCKVSNKALGAPIEKTISKAKGQPFRPEVHLLPPSREEMTKNQVSLTCLARGFYPKDIAVEWESNGQPENNYKTTPSRQEPSQGTTTFAVTSKLTVDKSRWQQGNVFSCSVMHEALHNHYTQKTISLSPGK light: not shown | 0.89 nM | 0.07 nM
